Binding signal (fold (reference)) and binding signal (fold over homoduplex) data for two substances are collected here from patent US5750335.

The data set addresses T1, MutS (Salmonella typhimurium) (UniProt P0A1Y0).
T1 sequence: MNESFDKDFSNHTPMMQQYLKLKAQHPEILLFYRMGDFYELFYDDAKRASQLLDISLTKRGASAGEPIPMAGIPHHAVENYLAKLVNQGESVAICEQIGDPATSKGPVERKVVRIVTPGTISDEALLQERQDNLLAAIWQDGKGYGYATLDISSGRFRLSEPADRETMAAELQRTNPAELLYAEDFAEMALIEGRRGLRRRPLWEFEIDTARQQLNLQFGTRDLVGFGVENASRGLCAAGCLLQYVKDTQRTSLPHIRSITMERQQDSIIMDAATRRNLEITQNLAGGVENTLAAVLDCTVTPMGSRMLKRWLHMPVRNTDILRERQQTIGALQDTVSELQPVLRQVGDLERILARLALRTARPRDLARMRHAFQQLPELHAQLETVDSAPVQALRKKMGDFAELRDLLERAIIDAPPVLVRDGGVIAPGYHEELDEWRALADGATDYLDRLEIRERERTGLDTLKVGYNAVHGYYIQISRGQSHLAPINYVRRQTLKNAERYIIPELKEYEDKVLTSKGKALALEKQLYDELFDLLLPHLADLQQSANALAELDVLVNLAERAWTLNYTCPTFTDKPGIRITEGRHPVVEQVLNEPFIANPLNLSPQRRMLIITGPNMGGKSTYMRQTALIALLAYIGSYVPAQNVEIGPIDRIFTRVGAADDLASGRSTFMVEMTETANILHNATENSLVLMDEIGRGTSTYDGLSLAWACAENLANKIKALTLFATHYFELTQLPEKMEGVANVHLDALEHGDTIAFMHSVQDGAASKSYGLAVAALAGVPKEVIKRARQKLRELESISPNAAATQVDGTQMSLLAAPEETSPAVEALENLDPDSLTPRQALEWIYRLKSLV
In words: pulldown. Particulars: on ice.

1 KB AvaII-BglII M13mp8 homoduplex returned a binding signal (fold (reference)) (homoduplex control precipitated 9.6 fold less, competitor DNA) of 1.
Consider “1 KB AvaII-BglII M13mp8 C-A heteroduplex”, for which the binding signal (fold over homoduplex) (immunoprecipitation with anti-MutS, 1 ug lambda competitor DNA) amounted to 9.6.
